Results taken from article PMC6743330.

Biological target: PtmU3 (Streptomyces platensis CB00739)
Test: SEC

PtmU3 (enzyme) was tested. Which stoichiometry N did it give?
Its stoichiometry N is 2.
